Test results taken from the supplement of paper PMC5998384.

Tests used:
HeLa Kyoto [1] = assay: thermal stability score vs G1/S (z-score of summed log2 fold changes over temperatures); higher = more thermally stable than in G1/S
HeLa Kyoto [2] = assay: melting temperature (median over replicates), in situ; higher = more thermally stable
HeLa Kyoto [3] = assay: solubility in G1/S (NP-40 vs SDS abundance) (log2 ratio); higher = more soluble; details: cell cycle stage: G1/S
HeLa Kyoto [4] = assay: solubility change mitosis vs G1/S (difference of NP-40 vs SDS log2 ratios) (log2 ratio difference); higher = more soluble in mitosis
[5] = cell cycle stage: early G1 (4.5 h after nocodazole release)
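For melting temperature (median over replicates), in situ in this document: HeLa Kyoto cells synchronized by double thymidine or nocodazole block, proteins quantified by TMT10plex mass spectrometry, three independent biological replicates.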
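For solubility change mitosis vs G1/S (difference of NP-40 vs SDS log2 ratios) in this document: synchronized HeLa Kyoto cells (double thymidine block for G1/S, nocodazole release for mitosis), protein amounts in NP-40 versus SDS lysates quantified by mass spectrometry, three biological replicates.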
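For solubility in G1/S (NP-40 vs SDS abundance) in this document: HeLa Kyoto cells arrested at G1/S by double thymidine block, proteins quantified by TMT10plex mass spectrometry in mild NP-40 versus SDS extracts, three biological replicates.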
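For thermal stability score vs G1/S (z-score of summed log2 fold changes over temperatures) in this document: synchronized HeLa Kyoto cells, proteins quantified by TMT10plex mass spectrometry, three biological replicates, mitosis taken 0.5 h after nocodazole release, G1/S directly after double thymidine block.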

Sequence of ANTXR1 (chain, as listed by the source): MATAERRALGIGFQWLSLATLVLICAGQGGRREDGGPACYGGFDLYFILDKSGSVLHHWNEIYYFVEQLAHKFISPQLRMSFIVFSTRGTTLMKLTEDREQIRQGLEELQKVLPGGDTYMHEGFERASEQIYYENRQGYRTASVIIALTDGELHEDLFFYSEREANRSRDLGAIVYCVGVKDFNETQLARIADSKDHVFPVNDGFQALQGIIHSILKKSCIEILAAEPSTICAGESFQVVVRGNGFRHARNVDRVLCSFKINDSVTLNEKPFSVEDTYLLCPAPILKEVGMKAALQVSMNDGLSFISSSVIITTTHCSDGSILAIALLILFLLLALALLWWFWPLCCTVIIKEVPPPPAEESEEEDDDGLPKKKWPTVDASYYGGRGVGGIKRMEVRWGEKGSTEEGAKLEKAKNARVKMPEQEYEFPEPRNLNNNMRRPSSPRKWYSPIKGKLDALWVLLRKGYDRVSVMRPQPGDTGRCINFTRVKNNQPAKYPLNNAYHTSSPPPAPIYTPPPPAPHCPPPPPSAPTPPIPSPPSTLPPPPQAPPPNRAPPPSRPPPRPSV
Sequence of CCBL2 (chain, as listed by the source): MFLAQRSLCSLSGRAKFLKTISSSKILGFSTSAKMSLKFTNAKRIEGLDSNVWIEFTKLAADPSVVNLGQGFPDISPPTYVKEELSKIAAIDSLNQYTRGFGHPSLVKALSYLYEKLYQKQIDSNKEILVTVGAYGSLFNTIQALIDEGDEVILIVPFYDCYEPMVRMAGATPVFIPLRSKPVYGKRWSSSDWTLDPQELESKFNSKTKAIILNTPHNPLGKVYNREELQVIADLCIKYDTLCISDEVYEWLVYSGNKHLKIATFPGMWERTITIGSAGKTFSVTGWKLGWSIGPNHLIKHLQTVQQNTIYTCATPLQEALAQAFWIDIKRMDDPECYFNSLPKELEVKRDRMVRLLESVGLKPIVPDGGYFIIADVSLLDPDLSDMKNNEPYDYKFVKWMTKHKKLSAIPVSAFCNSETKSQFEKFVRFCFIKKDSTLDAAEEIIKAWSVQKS
Sequence of CBX1 (chain, as listed by the source): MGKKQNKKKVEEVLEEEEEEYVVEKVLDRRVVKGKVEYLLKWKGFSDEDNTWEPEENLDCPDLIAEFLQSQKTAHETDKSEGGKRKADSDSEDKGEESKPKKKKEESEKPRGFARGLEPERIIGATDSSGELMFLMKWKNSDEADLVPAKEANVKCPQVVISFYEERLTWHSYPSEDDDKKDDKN
Sequence of CBX3 (chain, as listed by the source): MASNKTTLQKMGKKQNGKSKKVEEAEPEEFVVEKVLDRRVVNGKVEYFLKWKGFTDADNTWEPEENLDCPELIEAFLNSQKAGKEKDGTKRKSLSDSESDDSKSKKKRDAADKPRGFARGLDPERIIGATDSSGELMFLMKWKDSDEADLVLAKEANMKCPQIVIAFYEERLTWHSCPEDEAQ
Sequence of ARHGAP4 (chain, as listed by the source): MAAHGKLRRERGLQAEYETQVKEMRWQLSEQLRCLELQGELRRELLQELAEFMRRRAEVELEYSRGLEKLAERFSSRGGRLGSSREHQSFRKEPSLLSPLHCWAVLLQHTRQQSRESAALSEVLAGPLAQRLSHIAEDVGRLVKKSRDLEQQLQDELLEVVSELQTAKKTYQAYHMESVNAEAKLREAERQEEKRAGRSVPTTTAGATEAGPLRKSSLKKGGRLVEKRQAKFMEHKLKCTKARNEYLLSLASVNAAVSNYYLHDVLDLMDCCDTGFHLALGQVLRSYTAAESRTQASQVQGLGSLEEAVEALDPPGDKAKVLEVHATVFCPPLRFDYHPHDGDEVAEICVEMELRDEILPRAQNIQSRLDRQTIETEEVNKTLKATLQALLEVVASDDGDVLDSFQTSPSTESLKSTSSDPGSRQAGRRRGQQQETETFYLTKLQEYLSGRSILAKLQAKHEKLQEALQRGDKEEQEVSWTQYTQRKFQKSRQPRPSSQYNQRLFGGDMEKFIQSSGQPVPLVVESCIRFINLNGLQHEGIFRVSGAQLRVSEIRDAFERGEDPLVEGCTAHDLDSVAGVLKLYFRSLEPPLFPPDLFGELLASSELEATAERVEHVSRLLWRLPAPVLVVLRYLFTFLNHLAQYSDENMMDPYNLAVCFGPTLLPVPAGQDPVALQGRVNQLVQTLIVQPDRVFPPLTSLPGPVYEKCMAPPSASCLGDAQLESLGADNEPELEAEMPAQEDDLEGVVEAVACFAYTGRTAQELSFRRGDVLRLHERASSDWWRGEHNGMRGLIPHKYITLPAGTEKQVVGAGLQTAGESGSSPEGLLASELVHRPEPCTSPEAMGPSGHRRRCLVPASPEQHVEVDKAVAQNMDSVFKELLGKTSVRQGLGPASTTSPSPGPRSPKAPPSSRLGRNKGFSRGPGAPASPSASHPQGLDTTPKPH
Sequence of ADCK3 (chain, as listed by the source): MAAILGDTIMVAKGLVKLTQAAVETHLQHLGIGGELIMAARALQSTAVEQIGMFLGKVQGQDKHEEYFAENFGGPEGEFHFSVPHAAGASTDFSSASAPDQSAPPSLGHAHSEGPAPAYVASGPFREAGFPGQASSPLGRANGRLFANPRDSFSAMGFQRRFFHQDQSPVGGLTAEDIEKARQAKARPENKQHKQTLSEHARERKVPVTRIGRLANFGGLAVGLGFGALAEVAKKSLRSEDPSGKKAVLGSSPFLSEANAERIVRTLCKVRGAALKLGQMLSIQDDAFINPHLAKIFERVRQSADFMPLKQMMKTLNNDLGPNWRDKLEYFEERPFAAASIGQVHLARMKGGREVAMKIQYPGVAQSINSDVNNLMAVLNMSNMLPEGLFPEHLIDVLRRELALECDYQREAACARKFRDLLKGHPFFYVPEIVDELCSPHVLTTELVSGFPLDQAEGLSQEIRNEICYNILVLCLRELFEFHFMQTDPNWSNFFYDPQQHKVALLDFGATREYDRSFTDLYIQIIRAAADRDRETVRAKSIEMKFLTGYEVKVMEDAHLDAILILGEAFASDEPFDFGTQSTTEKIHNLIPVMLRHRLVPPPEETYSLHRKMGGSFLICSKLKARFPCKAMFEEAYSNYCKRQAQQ
Sequence of AKAP8 (chain, as listed by the source): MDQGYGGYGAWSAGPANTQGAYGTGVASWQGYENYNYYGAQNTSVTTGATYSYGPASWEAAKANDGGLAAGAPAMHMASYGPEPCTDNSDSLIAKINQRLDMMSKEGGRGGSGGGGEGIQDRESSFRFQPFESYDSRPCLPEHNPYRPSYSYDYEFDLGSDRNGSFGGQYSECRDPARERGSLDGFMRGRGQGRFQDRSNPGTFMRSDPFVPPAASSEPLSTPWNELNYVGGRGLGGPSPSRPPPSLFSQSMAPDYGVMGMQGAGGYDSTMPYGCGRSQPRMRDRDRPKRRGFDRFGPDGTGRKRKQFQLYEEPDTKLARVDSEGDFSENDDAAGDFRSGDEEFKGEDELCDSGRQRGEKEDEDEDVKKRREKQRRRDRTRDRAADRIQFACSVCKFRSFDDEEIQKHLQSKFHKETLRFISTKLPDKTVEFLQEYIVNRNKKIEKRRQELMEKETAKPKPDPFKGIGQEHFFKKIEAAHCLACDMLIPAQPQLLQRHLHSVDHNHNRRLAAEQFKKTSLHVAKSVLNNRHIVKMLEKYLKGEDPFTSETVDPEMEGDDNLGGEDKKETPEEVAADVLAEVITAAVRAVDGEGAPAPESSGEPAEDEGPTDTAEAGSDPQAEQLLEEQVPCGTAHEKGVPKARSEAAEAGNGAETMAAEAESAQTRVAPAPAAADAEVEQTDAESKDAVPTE
Sequence of ABCF1 (chain, as listed by the source): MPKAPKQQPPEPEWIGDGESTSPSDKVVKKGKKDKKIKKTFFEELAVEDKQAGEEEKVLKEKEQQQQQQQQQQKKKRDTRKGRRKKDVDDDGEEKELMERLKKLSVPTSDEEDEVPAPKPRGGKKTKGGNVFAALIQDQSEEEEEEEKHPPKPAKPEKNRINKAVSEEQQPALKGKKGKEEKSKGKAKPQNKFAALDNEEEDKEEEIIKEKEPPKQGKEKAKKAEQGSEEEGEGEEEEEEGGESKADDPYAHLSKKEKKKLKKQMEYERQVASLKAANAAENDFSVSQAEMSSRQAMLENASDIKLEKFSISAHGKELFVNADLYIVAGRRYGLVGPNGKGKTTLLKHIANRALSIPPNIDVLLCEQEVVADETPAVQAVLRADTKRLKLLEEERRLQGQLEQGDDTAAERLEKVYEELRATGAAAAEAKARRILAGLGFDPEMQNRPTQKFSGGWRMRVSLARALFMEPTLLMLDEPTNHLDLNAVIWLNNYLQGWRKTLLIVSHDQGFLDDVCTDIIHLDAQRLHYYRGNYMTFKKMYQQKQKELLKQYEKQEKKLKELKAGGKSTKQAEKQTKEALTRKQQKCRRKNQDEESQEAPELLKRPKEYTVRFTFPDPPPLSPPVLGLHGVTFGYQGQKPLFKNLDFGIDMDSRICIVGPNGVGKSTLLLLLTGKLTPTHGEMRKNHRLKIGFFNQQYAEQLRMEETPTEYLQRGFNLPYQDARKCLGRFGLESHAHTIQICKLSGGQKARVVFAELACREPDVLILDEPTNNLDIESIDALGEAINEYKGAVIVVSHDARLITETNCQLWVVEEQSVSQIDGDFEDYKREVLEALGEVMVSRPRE
Sequence of APTX (chain, as listed by the source): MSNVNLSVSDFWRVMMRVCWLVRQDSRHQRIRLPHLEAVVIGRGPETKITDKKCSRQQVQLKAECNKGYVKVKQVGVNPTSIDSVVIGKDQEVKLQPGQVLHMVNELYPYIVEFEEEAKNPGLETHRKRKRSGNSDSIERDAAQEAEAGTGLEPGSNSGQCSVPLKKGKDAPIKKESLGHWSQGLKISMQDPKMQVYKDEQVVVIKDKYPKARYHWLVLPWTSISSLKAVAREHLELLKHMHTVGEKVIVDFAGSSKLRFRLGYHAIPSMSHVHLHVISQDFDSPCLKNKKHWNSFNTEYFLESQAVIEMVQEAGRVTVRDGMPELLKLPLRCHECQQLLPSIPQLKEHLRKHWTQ

Substance	thermal stability score (HeLa Kyoto [1]; [5])	thermal stability score (HeLa Kyoto [1]; cell cycle stage: mitosis)	melting temperature (HeLa Kyoto [2]; cell cycle stage: G1/S) [°C]	melting temperature (HeLa Kyoto [2]; cell cycle stage: mitosis) [°C]	solubility in G1/S (log2) (HeLa Kyoto [3])	solubility change mitosis (log2) (HeLa Kyoto [4])
ABCD1	0.954	0.963	49.9	49.7	-0.353	-0.0995
ABCF1	-2.34	-2.94	52.7	52.3	-0.133	0.0453
ADCK3	0.477	-0.51	51.1	50	0.231	-0.0659
AHNAK2	0.749	3.16	53	53.5	0.073	-0.0597
AKAP8	1.87	2.22	49	49.8	-0.14	0.113
ANKRD17	-0.291	0.712	49.8	49.9	-0.13	0.0244
ANTXR1	-1.21	-3.82	55	55	0.0506	0.0236
APOB	-3.15	-0.312	57.6	55.5	-0.404	0.0239
APTX	0.58	1.59	48.5	50.7	-0.219	0.0501
ARFGEF1	0.51	0.0301	50.8	50.1	-0.319	-0.109
ARHGAP4	0.224	0.251	52.5	50.3	0.0702	-0.000167
ARHGAP21	0.0615	0.748	47.6	50.2	-0.453	0.156
ARID1B	0.573	1.11	48.8	50.2	-0.143	0.0332
ASCC1	1.88	1.1	50.3	50.7	-0.115	0.0348
ATM	0.333	0.0333	51.7	51.3	-0.339	-0.141
ATRX	-0.452	0.516	49.2	51.4	-1.33	0.492
CBX1	2.04	1.13	51.2	52.8	-0.629	0.55
CBX3	0.789	1.67	49.9	50.9	-0.141	0.672
CCBL2	-0.947	-1.75	57.2	57.5	0.16	-0.21
